Assay results from patent publication US20230303695A1 (SHANGHAI XBH BIOTECHNOLOGY, published 2023).

T1: recombinant human IGSF8 extracellular domain tagged by a human Fc region (IGSF8-hFc) (human, UniProt Q969P0 28-579, biotin label in Examples 17, 18 and 28 (site not given))
T1 construct: also called IGSF8-Fc fusion protein; IGSF8-hFc-biotin; not shown: human Fc region
T1 sequence: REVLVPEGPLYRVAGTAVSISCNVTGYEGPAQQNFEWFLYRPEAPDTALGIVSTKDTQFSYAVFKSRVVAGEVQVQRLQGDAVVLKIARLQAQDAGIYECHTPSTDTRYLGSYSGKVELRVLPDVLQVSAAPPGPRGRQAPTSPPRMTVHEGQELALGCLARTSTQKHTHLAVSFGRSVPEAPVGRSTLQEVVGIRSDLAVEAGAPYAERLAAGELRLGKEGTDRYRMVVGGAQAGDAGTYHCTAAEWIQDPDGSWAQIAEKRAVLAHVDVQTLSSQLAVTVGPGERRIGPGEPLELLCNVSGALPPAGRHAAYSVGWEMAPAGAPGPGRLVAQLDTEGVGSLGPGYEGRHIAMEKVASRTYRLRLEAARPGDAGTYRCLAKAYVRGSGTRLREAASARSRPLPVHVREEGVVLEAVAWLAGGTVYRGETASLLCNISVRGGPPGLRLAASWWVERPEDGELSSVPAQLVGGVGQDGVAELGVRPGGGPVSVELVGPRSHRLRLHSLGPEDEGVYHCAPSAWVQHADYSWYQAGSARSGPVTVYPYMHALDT

T2: human IGSF8 expressed on the cell surface (human, UniProt Q969P0 28-613)
T2 construct: whole, on cells; also called human IGSF8 on CT26 cells; IGSF8 on MC38 cells
T2 sequence (looked up): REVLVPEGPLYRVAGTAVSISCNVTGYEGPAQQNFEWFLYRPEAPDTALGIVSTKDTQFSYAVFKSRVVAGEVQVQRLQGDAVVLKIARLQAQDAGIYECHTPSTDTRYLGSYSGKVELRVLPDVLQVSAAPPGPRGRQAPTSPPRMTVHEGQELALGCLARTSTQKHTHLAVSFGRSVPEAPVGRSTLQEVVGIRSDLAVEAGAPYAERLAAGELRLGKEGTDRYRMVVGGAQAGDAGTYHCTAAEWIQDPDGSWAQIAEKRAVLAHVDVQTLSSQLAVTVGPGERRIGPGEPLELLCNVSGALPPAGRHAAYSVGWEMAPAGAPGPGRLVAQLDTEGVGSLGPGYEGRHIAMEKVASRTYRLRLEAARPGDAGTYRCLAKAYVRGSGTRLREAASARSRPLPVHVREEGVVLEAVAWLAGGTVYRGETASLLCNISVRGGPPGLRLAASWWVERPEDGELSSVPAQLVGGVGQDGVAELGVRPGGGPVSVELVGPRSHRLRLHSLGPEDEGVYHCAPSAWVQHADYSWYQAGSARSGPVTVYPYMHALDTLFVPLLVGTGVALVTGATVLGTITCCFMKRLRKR

B1: KIR3DL2 expressed on cells (receptor, human, UniProt P43630 22-455, looked up)
chain: LMGGQDKPFLSARPSTVVPRGGHVALQCHYRRGFNNFMLYKEDRSHVPIFHGRIFQESFIMGPVTPAHAGTYRCRGSRPHSLTGWSAPSNPLVIMVTGNHRKPSLLAHPGPLLKSGETVILQCWSDVMFEHFFLHREGISEDPSRLVGQIHDGVSKANFSIGPLMPVLAGTYRCYGSVPHSPYQLSAPSDPLDIVITGLYEKPSLSAQPGPTVQAGENVTLSCSSWSSYDIYHLSREGEAHERRLRAVPKVNRTFQADFPLGPATHGGTYRCFGSFRALPCVWSNSSDPLLVSVTGNPSSSWPSPTEPSSKSGICRHLHVLIGTSVVIFLFILLLFFLLYRWCSNKKNAAVMDQEPAGDRTVNRQDSDEQDPQEVTYAQLDHCVFIQRKISRPSQRPKTPLTDTSVYTELPNAEPRSKVVSCPRAPQSGLEGVF
notes: whole, on cells; on CT26 cells (vector with thy1.1 tag)
B2: IGSF8 protein without D1 domain (ligand, human, UniProt Q969P0 150-579, looked up)
chain: PDVLQVSAAPPGPRGRQAPTSPPRMTVHEGQELALGCLARTSTQKHTHLAVSFGRSVPEAPVGRSTLQEVVGIRSDLAVEAGAPYAERLAAGELRLGKEGTDRYRMVVGGAQAGDAGTYHCTAAEWIQDPDGSWAQIAEKRAVLAHVDVQTLSSQLAVTVGPGERRIGPGEPLELLCNVSGALPPAGRHAAYSVGWEMAPAGAPGPGRLVAQLDTEGVGSLGPGYEGRHIAMEKVASRTYRLRLEAARPGDAGTYRCLAKAYVRGSGTRLREAASARSRPLPVHVREEGVVLEAVAWLAGGTVYRGETASLLCNISVRGGPPGLRLAASWWVERPEDGELSSVPAQLVGGVGQDGVAELGVRPGGGPVSVELVGPRSHRLRLHSLGPEDEGVYHCAPSAWVQHADYSWYQAGSARSGPVTVYPYMHALDT
notes: domain: D2-4; also called D24; D2-4

What was measured:
[1] = biological target: T1, recombinant human IGSF8 extracellular …; test: FACS, biotin-labelled IGSF8-hFc on CT26 cells expressing the KIR, MFI normalized to Thy1.1
Protocol: For this experiment, different human KIR receptors (KIR2DL1, KIR2DL2, KIR2DL3, KIR2DL4, KIR2DL5A, KIR2DL5B, KIR3DL1, KIR3DL2, KIR3DL3) were first cloned into a proprietary lentiviral vector containing a thy1.1 tag (FIG. 17A). Then mouse CT26 cells, were transducted by these lentiviral constructs, and IGSF8 binding was tested with biotin-labelled recombinant IGSF8 hFc fusion protein. The mean fluorescence intensity (MFI) of IGSF8 binding to different CT26 cells were normalized by the expression of different KIRs on CT26 cells using an anti-thy1.1 mAb (Biolegend) via flow cytometry.
(§1) KLRC1 also contains a ITIM motif in its intracellular domain, and was known to be a inhibitory receptor of NK or CD8⁺ T cells as part of a heterodimer with KLRD1 on the cell surface. […] Specifically, 100,000 CT26 cells overexpressing the antigens (KIRs or KLRs) were washed with PBS buffer containing 2% FBS, and incubated with 100 μL IGSF8 recombinant proteins or antibodies (5 μg/mL) for 30 minutes on ice. Cells were then washed twice with wash buffer, and incubated with 100 μL of 1:100 anti-human Fc-PE antibody for 15 minutes on ice. Cells were washed twice with wash buffer and analyzed on a FACS analyzer (CytoFlex, Beckman). In these experiments, the mean fluorescence intensity (MFI) of IGSF8 binding to different CT26 cells were normalized by the expression of different KLRs on CT26 cells using an anti-thy1.1 mAb via flow cytometry.

[2] = biological target: T2, human IGSF8 expressed on the cell …; test: FACS cell-cell conjugate assay, CFSE-labelled MC38-IGSF8 mixed 1:1 with Far Red-labelled CT26-KIR3DL2
Protocol: FIG. 23A is a diagram of two embodiments of an antibody blocking assay. In the left panel, CT26 cells expressing ligand IGSF8 are treated with soluble and biotin labelled receptor (KIR3DL1/2) and anti-IGSF8 mAbs, and subsequently, bound receptor is detected with PE-streptavidin. In the right panel, MC38 cells expressing the IGSF8 ligand are contacted with KLR- or KIR-receptor-expressing CT26 cells, and anti-IGSF8 antibodies capable of blocking MC38-CT26 cell/cell conjugates will reduce the formation of the FACS-detectable conjugate.
A competition assay (FIG. 23A) was then designed to test whether these seven mAbs block IGSF8 binding to the KIR3DL1/2 or the KLRC1&D1 heterodimer receptors. MC38 cells (a cell line derived from C57BL6 murine colon adenocarcinoma cells from NIH) with forced expression of IGSF8 protein on cell surface by lentiviral delivery of a human IGSF8-expression construct were labeled with CFSE (Carboxyfluorescein succinimidyl ester, Thermo). CT26 cells with forced expression of either KIR3DL1/2 or KLRC1&D1 were labeled with CellTrace Far Red (Thermo). The MC38 cells were then mixed at a 1:1 ratio with the CT26 cells for about an hour at room temperature. The formation of MC38 and CT26 cell/cell conjugates was assessed by flow cytometry.

[3] = biological target: B1; test: FACS, hFc-tagged proteins on CT26 cells expressing the receptor, MFI normalized to Thy1.1
Protocol: as §1

binding result [1]	binding result [2]	binding result [3]	Binder
binds	binds		B1
		no binding	B2
